Where two headings read alike, the source gives them in different places.
Columns and labels:
[1] = biological target: T1, human sodium-dependent phosphate transporter 2B (NaPi2b) (human, UniProt O95436 1-690); test: cell-based or functional assay
T1 sequence: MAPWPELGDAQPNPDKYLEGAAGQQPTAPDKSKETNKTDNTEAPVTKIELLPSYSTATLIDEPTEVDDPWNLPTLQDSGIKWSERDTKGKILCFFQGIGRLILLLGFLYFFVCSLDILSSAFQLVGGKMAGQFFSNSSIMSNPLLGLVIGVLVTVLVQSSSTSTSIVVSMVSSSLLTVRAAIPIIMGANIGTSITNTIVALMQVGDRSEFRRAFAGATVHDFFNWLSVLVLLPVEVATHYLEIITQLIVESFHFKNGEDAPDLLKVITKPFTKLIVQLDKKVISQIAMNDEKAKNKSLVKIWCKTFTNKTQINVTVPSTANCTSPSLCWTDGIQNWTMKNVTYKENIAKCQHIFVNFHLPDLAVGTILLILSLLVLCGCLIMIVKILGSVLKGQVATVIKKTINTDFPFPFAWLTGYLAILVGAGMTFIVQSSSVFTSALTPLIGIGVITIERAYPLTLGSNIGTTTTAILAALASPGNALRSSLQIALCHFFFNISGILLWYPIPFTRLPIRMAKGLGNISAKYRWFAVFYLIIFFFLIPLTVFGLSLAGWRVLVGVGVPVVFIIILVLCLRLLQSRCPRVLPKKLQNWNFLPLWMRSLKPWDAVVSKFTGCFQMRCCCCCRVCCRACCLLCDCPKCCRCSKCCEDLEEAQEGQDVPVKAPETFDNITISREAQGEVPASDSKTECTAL

[2] = biological target: T1, human sodium-dependent phosphate …; test: flow cytometry on HEK293-6e cells transfected with human NaPi2b
Experimental: (§1) Following transfection, cells were seeded at 50,000 cells/well in conical-bottom 96-well plates and treated with test antibody or antibody-drug conjugate for 24 hours at 4° C. to prevent internalization. […] Following incubation and washing, fluorescence was detected by flow cytometry on a BD LSRFortessa™ Cell Analyzer (BD Biosciences, Franklin Lake, NJ) with 1,000 minimum events collected per well.

[3] = biological target: T1, human sodium-dependent phosphate …; test: as above; remark: listed apart in the source
Experimental: as §1

cynomolgus monkey NaPi2b [4] = biological target: T2, cynomolgus monkey NaPi2b (cynomolgus monkey, UniProt O95436 1-690 (human entry)); test: flow cytometry on HEK293-6e cells transfected with cynomolgus NaPi2b
T2 construct: Transfected into HEK293-6e cells (clone CL_#13433); also called Cy NaPi2b; Cyno NaPi2b
T2 chain: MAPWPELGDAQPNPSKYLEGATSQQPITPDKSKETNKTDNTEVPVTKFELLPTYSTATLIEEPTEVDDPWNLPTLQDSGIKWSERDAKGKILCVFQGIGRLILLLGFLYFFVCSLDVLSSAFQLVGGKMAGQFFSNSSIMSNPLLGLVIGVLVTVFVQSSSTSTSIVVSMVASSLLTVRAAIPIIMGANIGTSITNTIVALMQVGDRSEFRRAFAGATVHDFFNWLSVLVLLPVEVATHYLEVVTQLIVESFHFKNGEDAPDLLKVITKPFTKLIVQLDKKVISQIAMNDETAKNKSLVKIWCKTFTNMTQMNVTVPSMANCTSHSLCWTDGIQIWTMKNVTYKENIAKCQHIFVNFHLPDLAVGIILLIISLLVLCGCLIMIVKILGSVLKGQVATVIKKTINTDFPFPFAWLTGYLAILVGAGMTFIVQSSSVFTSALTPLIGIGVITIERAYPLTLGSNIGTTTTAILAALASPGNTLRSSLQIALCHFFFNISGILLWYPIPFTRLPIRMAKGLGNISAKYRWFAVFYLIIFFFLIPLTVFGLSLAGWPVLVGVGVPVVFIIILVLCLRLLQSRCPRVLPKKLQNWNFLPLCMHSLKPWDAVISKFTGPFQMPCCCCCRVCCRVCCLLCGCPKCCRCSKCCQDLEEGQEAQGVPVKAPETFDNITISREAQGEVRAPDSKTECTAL
Experimental: as §1

[5] = biological target: T1, human sodium-dependent phosphate …; test: flow cytometry on IGROV-1 cells, 24 h at 4 C, anti-human IgG Fc AF647
Experimental: (§2) Following incubation and washing, fluorescence was detected by flow cytometry on a BD LSRFortessa™ Cell Analyzer (BD Biosciences, Franklin Lake, NJ) with 1,000 minimum events collected per well.

[6] = biological target: T1, human sodium-dependent phosphate …; test: flow cytometry on OVCAR-3 cells, 24 h at 4 C, anti-human IgG Fc AF647
Experimental: as §2

[7] = biological target: T1, human sodium-dependent phosphate …; test: flow cytometry on HEK293-6e cells transfected with human NaPi2b, apparent Kd
Experimental: as §1

[8] = biological target: T1, human sodium-dependent phosphate …; test: as above; remark: listed apart in the source
Experimental: as §1

cynomolgus monkey NaPi2b [9] = biological target: T2, cynomolgus monkey NaPi2b; test: flow cytometry on HEK293-6e cells transfected with cynomolgus NaPi2b, apparent Kd
Experimental: as §1

[10] = biological target: T1, human sodium-dependent phosphate …; test: cell-based or functional assay; remark: listed apart in the source
mouse NaPi2b [11] = biological target: T3, mouse NaPi2b (mouse, UniProt Q9DBP0 1-697); test: flow cytometry on HEK293-6e cells transfected with mouse NaPi2b
T3 construct: Transfected into HEK293-6e cells (clone CL_#13476); also called Ms NaPi2b
T3 sequence: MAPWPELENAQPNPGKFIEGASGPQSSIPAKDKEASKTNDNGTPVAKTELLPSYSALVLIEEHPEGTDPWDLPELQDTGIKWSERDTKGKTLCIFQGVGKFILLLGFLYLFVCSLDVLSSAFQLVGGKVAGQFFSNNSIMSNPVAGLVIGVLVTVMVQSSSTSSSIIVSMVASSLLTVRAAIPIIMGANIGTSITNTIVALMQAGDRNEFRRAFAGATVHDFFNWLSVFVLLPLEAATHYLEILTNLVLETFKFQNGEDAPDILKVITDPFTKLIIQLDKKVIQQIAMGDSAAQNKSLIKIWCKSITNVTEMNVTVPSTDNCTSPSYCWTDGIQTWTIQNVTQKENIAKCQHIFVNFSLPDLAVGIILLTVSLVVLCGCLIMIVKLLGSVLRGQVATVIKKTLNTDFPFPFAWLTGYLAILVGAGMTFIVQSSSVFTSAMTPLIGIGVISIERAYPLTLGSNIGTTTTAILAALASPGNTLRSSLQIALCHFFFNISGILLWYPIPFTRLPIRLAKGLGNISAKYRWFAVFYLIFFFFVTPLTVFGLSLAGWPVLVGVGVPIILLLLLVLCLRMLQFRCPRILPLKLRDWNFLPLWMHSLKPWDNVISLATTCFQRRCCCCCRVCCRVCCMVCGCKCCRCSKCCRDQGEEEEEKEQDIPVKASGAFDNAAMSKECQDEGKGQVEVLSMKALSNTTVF
Experimental: as §1

mouse NaPi2b [12] = biological target: T3, mouse NaPi2b; test: flow cytometry on HEK293-6e cells transfected with mouse NaPi2b, apparent Kd
Experimental: as §1

[13] = biological target: T1, human sodium-dependent phosphate …; test: cell-based or functional assay; remark: listed apart in the source
[14] = biological target: T1, human sodium-dependent phosphate …; test: cell-based or functional assay; remark: listed apart in the source
[15] = biological target: T1, human sodium-dependent phosphate …; test: cell-based or functional assay; remark: listed apart in the source

B1: v18993 (lifastuzumab) (antibody, human IgG1, kappa)
heavy 1: GEVQLVESGGGLVQPGGSLRLSCAASGFSFSDFAMSWVRQAPGKGLEWVATIGRVAFHTYYPDSMKGRFTISRDNSKNTLYLQMNSLRAEDTAVYYCARHRGFDVGHFDFWGQGTLVTVSSASTKGPSVFPLAPSSKSTSGGTAALGCLVKDYFPEPVTVSWNSGALTSGVHTFPAVLQSSGLYSLSSVVTVPSSSLGTQTYICNVNHKPSNTKVDKKVEPKSCDKTHTCPPCPAPELLGGPSVFLFPPKPKDTLMISRTPEVTCVVVDVSHEDPEVKFNWYVDGVEVHNAKTKPREEQYNSTYRVVSVLTVLHQDWLNGKEYKCKVSNKALPAPIEKTISKAKGQPREPQVYVYPPSRDELTKNQVSLTCLVKGFYPSDIAVEWESNGQPENNYKTTPPVLDSDGSFALVSKLTVDKSRWQQGNVFSCSVMHEALHNHYTQKSLSLSPG
heavy 2: not shown
light: GDIQMTQSPSSLSASVGDRVTITCRSSETLVHSSGNTYLEWYQQKPGKAPKLLIYRVSNRFSGVPSRFSGSGSGTDFTLTISSLQPEDFATYYCFQGSFNPLTFGQGTKVEIKRTVAAPSVFIFPPSDEQLKSGTASVVCLLNNFYPREAKVQWKVDNALQSGNSQESVTEQDSKDSTYSLSSTLTLSKADYEKHKVYACEVTHQGLSSPVTKSFNRGEC
notes: Two different heavy chains (heterodimeric Fc)
With B1 the “Internalized Fluorescence in OVCAR-3, 15 min, 100 nM” value [1] was 2480, the “Internalized Fluorescence in OVCAR-3, 4 hr, 100 nM” value [1] was 8750 and the “Internalized Fluorescence in OVCAR-3, 16 hr, 100 nM” value [1] was 8600. The “Internalized Fluorescence in OVCAR-3, 24 hr, 100 nM” value [1] was 13900, the Bmax [2] was 678 and the Bmax [3] was 678. It also gave a Bmax (cynomolgus monkey NaPi2b [4]) of 424, a Bmax [5] of 20000 and a Kd [5] of 2.69 nM. It also gave a Bmax [6] of 14500, a Kd [6] of 5.79 nM and a Kd [7] of 5.76 nM. For the same binder, the Kd [8] was 5.76 nM and the Kd (cynomolgus monkey NaPi2b [9]) was 4.71 nM.

B2: v22277 (palivizumab) (antibody, human IgG1, kappa)
heavy 1: GQVTLRESGPALVKPTQTLTLTCTFSGFSLSTSGMSVGWIRQPPGKALEWLADIWWDDKKDYNPSLKSRLTISKDTSKNQVVLKVTNMDPADTATYYCARSMITNWYFDVWGAGTTVTVSSASTKGPSVFPLAPSSKSTSGGTAALGCLVKDYFPEPVTVSWNSGALTSGVHTFPAVLQSSGLYSLSSVVTVPSSSLGTQTYICNVNHKPSNTKVDKKVEPKSCDKTHTCPPCPAPELLGGPSVFLFPPKPKDTLMISRTPEVTCVVVDVSHEDPEVKFNWYVDGVEVHNAKTKPREEQYNSTYRVVSVLTVLHQDWLNGKEYKCKVSNKALPAPIEKTISKAKGQPREPQVYVYPPSRDELTKNQVSLTCLVKGFYPSDIAVEWESNGQPENNYKTTPPVLDSDGSFALVSKLTVDKSRWQQGNVFSCSVMHEALHNHYTQKSLSLSPG
heavy 2: not shown
light: GDIQMTQSPSTLSASVGDRVTITCKSQLSVGYMHWYQQKPGKAPKLLIYDTSKLASGVPSRFSGSGSGTEFTLTISSLQPDDFATYYCFQGSGYPFTFGGGTKLEIKRTVAAPSVFIFPPSDEQLKSGTASVVCLLNNFYPREAKVQWKVDNALQSGNSQESVTEQDSKDSTYSLSSTLTLSKADYEKHKVYACEVTHQGLSSPVTKSFNRGEC
For B2, the “Internalized Fluorescence Fold-Over Palivizumab, IGROV-1, 4 hrs, 10 nM” value [10] was 1 fold, the “Internalized Fluorescence Fold-Over Palivizumab, OVCAR-3, 4 hrs, 10 nM” value [10] was 1 fold and the “Internalized Fluorescence Fold-Over Palivizumab, OVCAR-3, 24 hrs, 10 nM” value [10] was 1 fold.

B3: v38591-MC-GGFG-AM-Compound 139 DAR 8 (antibody, human IgG1, kappa)
heavy: not shown
light: DVQMTQSPSSLSASVGDRVTITCRASQDVYSYLNWYQQKPGKAVKLLIYYTSRLQSGVPSRFSGSGSGTDYTLTISSLQPEDFATYYCQQYNIFPWTFGQGTKLEIKRTVAAPSVFIFPPSDEQLKSGTASVVCLLNNFYPREAKVQWKVDNALQSGNSQESVTEQDSKDSTYSLSSTLTLSKADYEKHKVYACEVTHQGLSSPVTKSFNRGEC
modifications: drug-linker MC-GGFG-AM-Compound 139 on cysteine thiols after TCEP reduction, positions not given; DAR 8 for the whole antibody
notes: Antibody-drug conjugate of v38591 (IgG1/kappa); also called v38593
For B3, the “Internalized Fluorescence in OVCAR-3, 15 min, 100 nM” value [1] was 7380, the “Internalized Fluorescence in OVCAR-3, 4 hr, 100 nM” value [1] was 15600 and the “Internalized Fluorescence in OVCAR-3, 16 hr, 100 nM” value [1] was 16800. The “Internalized Fluorescence in OVCAR-3, 24 hr, 100 nM” value [1] was 26700, the Bmax [2] was 1530 and the Bmax (mouse NaPi2b [11]) was 396. For the same binder, the Bmax [3] was 1530, the Bmax (cynomolgus monkey NaPi2b [4]) was 408 and the Bmax [5] was 20500. For the same binder, the Kd [5] was 1.6 nM, the Bmax [6] was 14300 and the Kd [6] was 2.71 nM. The Kd (mouse NaPi2b [12]) was 0.64 nM and the Kd (cynomolgus monkey NaPi2b [9]) was 0.47 nM.

B4: v29456-MC-GGFG-AM-Compound 139 DAR 8 (antibody, human IgG1, kappa)
heavy: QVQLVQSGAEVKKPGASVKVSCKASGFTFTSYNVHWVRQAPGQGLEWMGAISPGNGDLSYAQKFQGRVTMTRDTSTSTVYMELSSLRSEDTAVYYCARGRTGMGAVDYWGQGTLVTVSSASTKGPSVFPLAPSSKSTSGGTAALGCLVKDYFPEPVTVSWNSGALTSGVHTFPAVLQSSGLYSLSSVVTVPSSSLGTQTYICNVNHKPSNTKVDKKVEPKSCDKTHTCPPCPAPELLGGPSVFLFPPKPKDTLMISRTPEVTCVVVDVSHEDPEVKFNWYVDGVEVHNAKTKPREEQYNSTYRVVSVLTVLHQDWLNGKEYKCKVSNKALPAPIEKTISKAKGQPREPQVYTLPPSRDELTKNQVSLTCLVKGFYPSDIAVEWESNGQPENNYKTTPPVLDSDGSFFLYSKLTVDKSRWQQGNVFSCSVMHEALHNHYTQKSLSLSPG
light: B3 light
modifications: drug-linker MC-GGFG-AM-Compound 139 on cysteine thiols after TCEP reduction, positions not given; DAR 8.0 for the whole antibody
With B4 the “EC50, in vitro cytotoxicity, 2D monolayer, IGROV-1” value [13] was 0.39 nM, the “EC50, in vitro cytotoxicity, 2D monolayer, TOV-21G” value [13] was 4.3 nM and the “EC50, in vitro cytotoxicity, IGROV-1 spheroids” value [14] was 0.31 nM. The “EC50, in vitro cytotoxicity, TOV-21G:HDFa (1:1) spheroids” value [14] was 0.24 nM, the “EC50, in vitro cytotoxicity, H441 spheroids” value [15] was 1.57 nM and the “EC50, in vitro cytotoxicity, IGROV-1 spheroids” value [15] was 0.55 nM. For the same binder, the “EC50, in vitro cytotoxicity, TOV-21G spheroids” value [15] was 0.54 nM.

B5: v38591-MC-GGFG-AM-Compound 139 DAR 4 (antibody, human IgG1, kappa)
heavy: not shown
light: B3 light
modifications: drug-linker MC-GGFG-AM-Compound 139 on cysteine thiols after TCEP reduction, positions not given; DAR 4 for the whole antibody
notes: Antibody-drug conjugate of v38591 (IgG1/kappa)
In the case of B5, the Bmax [2] is reported as 1260, the Bmax (mouse NaPi2b [11]) is reported as 538 and the Bmax [3] is reported as 1260. The Bmax (cynomolgus monkey NaPi2b [4]) was 459, the Bmax [5] was 22700 and the Kd [5] was 1.7 nM. The Bmax [6] was 15500, the Kd [6] was 2.52 nM and the Kd (mouse NaPi2b [12]) was 1.49 nM. For the same binder, the Kd (cynomolgus monkey NaPi2b [9]) was 0.36 nM.
